According to US20250011363A1, “OPTIMIZED SHORTENED PEPTIDE THAT BINDS TO ACETYLCHOLINE RECEPTOR, AND USE THEREOF” (SKINMED CO., LTD., priority 2021, published 2025):

molecular target: acetylcholine receptor (Homo sapiens, UniProt P02708); test: SPR binding affinity (RU) of optimized 5mer/6mer/7mer peptides, Examples 6-7; conditions: SPR; XRRGVRR-7mer and RRGVRRX-7mer
Method in brief: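 Synthetic 5mer and 6mer peptides, built from frequent or infrequent amino-acid combinations, were tested at 10 μM for binding to the human acetylcholine receptor by surface plasmon resonance. Binding is reported in response units (RU).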

acetylcholine receptor, sequence (P02708 21-457): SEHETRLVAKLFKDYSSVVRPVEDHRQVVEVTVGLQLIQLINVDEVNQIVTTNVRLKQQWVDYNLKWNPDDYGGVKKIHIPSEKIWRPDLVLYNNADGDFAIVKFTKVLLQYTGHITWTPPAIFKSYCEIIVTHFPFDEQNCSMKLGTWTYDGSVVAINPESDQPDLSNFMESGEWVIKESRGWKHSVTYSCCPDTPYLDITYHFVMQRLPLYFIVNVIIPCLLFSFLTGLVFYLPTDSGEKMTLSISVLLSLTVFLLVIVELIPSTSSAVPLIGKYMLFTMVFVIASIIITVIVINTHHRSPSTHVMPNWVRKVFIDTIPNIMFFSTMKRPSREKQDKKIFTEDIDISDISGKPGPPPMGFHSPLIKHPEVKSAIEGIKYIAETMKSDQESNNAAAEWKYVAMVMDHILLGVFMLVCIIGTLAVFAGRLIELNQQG

| Substance | Binding affinity, values relative to the RRGVRR sequence |
| --- | --- |
| 3641 (GRRGVRR) [compound 3641] | 137 |
| 3642 (ARRGVRR) [compound 3642] | 134 |
| 3643 (VRRGVRR) [compound 3643] | 140 |
| 3644 (CRRGVRR) [compound 3644] | 128 |
| 3645 (PRRGVRR) [compound 3645] | 138 |
| 3646 (LRRGVRR) [compound 3646] | 149 |
| 3647 (IRRGVRR) [compound 3647] | 126 |
| 3648 (MRRGVRR) [compound 3648] | 124 |
| 3649 (WRRGVRR) [compound 3649] | 134 |
| 3650 (FRRGVRR) [compound 3650] | 139 |
| 3651 (SRRGVRR) [compound 3651] | 117 |
| 3652 (TRRGVRR) [compound 3652] | 105 |
| 3653 (YRRGVRR) [compound 3653] | 145 |
| 3654 (NRRGVRR) [compound 3654] | 109 |
| 3655 (QRRGVRR) [compound 3655] | 101 |
| 3656 (KRRGVRR) [compound 3656] | 169 |
| 3657 (RRRGVRR) [compound 3657] | 185 |
| 3658 (HRRGVRR) [compound 3658] | 160 |
| 3659 (DRRGVRR) [compound 3659] | 159 |
| 3660 (ERRGVRR) [compound 3660] | 43 |

| Substance | Binding affinity, values relative to the RRGVRR sequence |
| --- | --- |
| 3661 (RRGVRRG) [compound 3661] | 105 |
| 3662 (RRGVRRA) [compound 3662] | 118 |
| 3663 (RRGVRRV) [compound 3663] | 149 |
| 3664 (RRGVRRC) [compound 3664] | 131 |
| 3665 (RRGVRRP) [compound 3665] | 142 |
| 3666 (RRGVRRL) [compound 3666] | 146 |
| 3667 (RRGVRRI) [compound 3667] | 138 |
| 3668 (RRGVRRM) [compound 3668] | 127 |
| 3669 (RRGVRRW) [compound 3669] | 134 |
| 3670 (RRGVRRF) [compound 3670] | 137 |
| 3671 (RRGVRRS) [compound 3671] | 118 |
| 3672 (RRGVRRT) [compound 3672] | 113 |
| 3673 (RRGVRRY) [compound 3673] | 101 |
| 3674 (RRGVRRN) [compound 3674] | 105 |
| 3675 (RRGVRRQ) [compound 3675] | 105 |
| 3676 (RRGVRRK) [compound 3676] | 171 |
| 3677 (RRGVRRR) [compound 3677] | 188 |
| 3678 (RRGVRRH) [compound 3678] | 154 |
| 3679 (RRGVRRD) [compound 3679] | 61 |
| 3680 (RRGVRRE) [compound 3680] | 33 |

same assay, conditions: SPR; XRRQRR-6mer and RRQRRX-6mer

| Substance | Binding affinity, relative value to the RRQRR sequence |
| --- | --- |
| 3608 (MRRQRR) [compound 3608] | 119 |
| 3609 (WRRQRR) [compound 3609] | 138 |
| 3610 (FRRQRR) [compound 3610] | 143 |
| 3611 (SRRQRR) [compound 3611] | 121 |
| 3612 (TRRQRR) [compound 3612] | 103 |
| 3613 (YRRQRR) [compound 3613] | 130 |
| 3614 (NRRQRR) [compound 3614] | 113 |
| 3615 (QRRQRR) [compound 3615] | 105 |
| 3616 (KRRQRR) [compound 3616] | 173 |
| 3617 (RRRQRR) [compound 3617] | 189 |
| 3618 (HRRQRR) [compound 3618] | 164 |
| 3619 (DRRQRR) [compound 3619] | 163 |
| 3620 (ERRQRR) [compound 3620] | 147 |
| 3621 (RRQRRG) [compound 3621] | 109 |
| 3622 (RRQRRA) [compound 3622] | 113 |
| 3623 (RRQRRV) [compound 3623] | 120 |
| 3624 (RRQRRC) [compound 3624] | 126 |

| Substance | Binding affinity, relative value to the RRQRR sequence |
| --- | --- |
| 3625 (RRQRRP) [compound 3625] | 137 |
| 3626 (RRQRRL) [compound 3626] | 141 |
| 3627 (RRQRRI) [compound 3627] | 133 |
| 3628 (RRQRRM) [compound 3628] | 122 |
| 3629 (RRQRRW) [compound 3629] | 129 |
| 3630 (RRQRRF) [compound 3630] | 132 |
| 3631 (RRQRRS) [compound 3631] | 113 |
| 3632 (RRQRRT) [compound 3632] | 117 |
| 3633 (RRQRRY) [compound 3633] | 105 |
| 3634 (RRQRRN) [compound 3634] | 109 |
| 3635 (RRQRRQ) [compound 3635] | 101 |
| 3636 (RRQRRK) [compound 3636] | 175 |
| 3637 (RRQRRR) [compound 3637] | 192 |
| 3638 (RRQRRH) [compound 3638] | 158 |
| 3639 (RRQRRD) [compound 3639] | 65 |
| 3640 (RRQRRE) [compound 3640] | 37 |
